Positions count from the first letter of the chain named. Names and notes keep the numbering of the source.
T1: EsCas13d, nuclease-dead (Eubacterium siraeum, UniProt B0MS50, R295A;H300A;R849A;H854A)
T1 sequence: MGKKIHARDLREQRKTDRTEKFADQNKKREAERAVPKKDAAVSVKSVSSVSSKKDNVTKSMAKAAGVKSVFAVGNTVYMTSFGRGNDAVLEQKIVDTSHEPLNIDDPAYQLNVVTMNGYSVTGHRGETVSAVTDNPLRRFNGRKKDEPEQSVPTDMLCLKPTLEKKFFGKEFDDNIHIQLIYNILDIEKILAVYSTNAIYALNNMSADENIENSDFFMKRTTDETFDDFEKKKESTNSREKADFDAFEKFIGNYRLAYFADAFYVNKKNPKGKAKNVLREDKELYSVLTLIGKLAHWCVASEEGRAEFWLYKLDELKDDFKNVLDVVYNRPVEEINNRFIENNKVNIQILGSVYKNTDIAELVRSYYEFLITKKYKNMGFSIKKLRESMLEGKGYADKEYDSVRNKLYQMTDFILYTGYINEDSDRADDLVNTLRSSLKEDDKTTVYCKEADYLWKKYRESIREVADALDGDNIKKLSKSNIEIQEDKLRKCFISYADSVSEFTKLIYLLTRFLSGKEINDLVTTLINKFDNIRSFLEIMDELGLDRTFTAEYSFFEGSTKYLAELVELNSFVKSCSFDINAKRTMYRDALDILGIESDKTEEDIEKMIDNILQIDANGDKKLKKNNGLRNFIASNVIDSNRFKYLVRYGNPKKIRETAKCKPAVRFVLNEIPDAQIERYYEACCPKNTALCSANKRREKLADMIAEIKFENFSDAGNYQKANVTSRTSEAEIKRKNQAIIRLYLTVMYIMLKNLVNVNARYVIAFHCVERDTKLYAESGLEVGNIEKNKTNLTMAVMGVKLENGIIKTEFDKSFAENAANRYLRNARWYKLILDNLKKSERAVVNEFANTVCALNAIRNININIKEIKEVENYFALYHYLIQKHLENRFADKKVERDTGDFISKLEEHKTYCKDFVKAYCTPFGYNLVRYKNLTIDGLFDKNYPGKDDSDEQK

B1: target 3 insA 3' of 4,insU 3' of 1 (mixed)
RNA 1: CACCCGUGCAAAAUUGCAGGGGUCUAAAACGACCUGAAUAUUUCAGAUCAAA
RNA 2: GGGAAUGGAUCCACAUCUACGAAUUCGUUUUUGAUCUGAAAUAUUCAGAGUCUUGCAGAUCGGAAGAGCACACGU
B2: target 3 C6U,A12G (mixed)
RNA 1: B1 RNA 1
RNA 2: GGGAAUGGAUCCACAUCUACGAAUUCGUUUUUGAUCUGAGAUAUUUAGGUCUGCAGAUCGGAAGAGCACACGU
B3: target 3 U2A,G3U (mixed)
RNA 1: B1 RNA 1
RNA 2: B2 RNA 2 with G40A, U46C, G49U, U50A
B4: target 3 insA 3' of 22,insA 3' of 14 (mixed)
RNA 1: B1 RNA 1
RNA 2: GGGAAUGGAUCCACAUCUACGAAUUCGUUUAUUGAUCUGAAAAUAUUCAGGUCUGCAGAUCGGAAGAGCACACGU
B5: target 3 A5U,U7G (mixed)
RNA 1: B1 RNA 1
RNA 2: B2 RNA 2 with G40A, U45G, U46C, A47U
B6: target 3 insG 3' of 8 (mixed)
RNA 1: B1 RNA 1
RNA 2: GGGAAUGGAUCCACAUCUACGAAUUCGUUUUUGAUCUGAAAUAUGUCAGGUCUGCAGAUCGGAAGAGCACACGU
B7: target 3 insG 3' of 6 (mixed)
RNA 1: B1 RNA 1
RNA 2: B6 RNA 2 with G45U, U46C, C47G
B8: target 3 insA 3' of 4,insG 3' of 1 (mixed)
RNA 1: B1 RNA 1
RNA 2: B1 RNA 2 with U53G
B9: target 3 insA 3' of 22,insA 3' of 4 (mixed)
RNA 1: B1 RNA 1
RNA 2: B4 RNA 2 with A43U, U44A, A45U, U47C, C48A, A49G, G50A
B10: target 3 insC 3' of 7,insG 3' of 6 (mixed)
RNA 1: B1 RNA 1
RNA 2: B1 RNA 2 with A47C, U51G, C52U, U53C
B11: target 3 G3C,U22C (mixed)
RNA 1: B1 RNA 1
RNA 2: B2 RNA 2 with U30C, G40A, U46C, G49C
B12: target 3 C1A,U2G (mixed)
RNA 1: B1 RNA 1
RNA 2: B2 RNA 2 with G40A, U46C, U50G, C51A
B13: target 3 insG 3' of 7,insC 3' of 5 (mixed)
RNA 1: B1 RNA 1
RNA 2: B1 RNA 2 with C46G, A47C, G48A, A49C, U51G, C52U, U53C
B14: target 3 insA 3' of 3 (mixed)
RNA 1: B1 RNA 1
RNA 2: B6 RNA 2 with G45U, U46C, C47A, A48G, G50A
B15: target 3 insA 3' of 4,insC 3' of 3 (mixed)
RNA 1: B1 RNA 1
RNA 2: B1 RNA 2 with U51C, C52U, U53C
B16: target 3 insU 3' of 6,insG 3' of 2 (mixed)
RNA 1: B1 RNA 1
RNA 2: B1 RNA 2 with A47U, G48A, A49G, C52G, U53C
B17: target 3 insU 3' of 13,insG 3' of 6 (mixed)
RNA 1: B1 RNA 1
RNA 2: B1 RNA 2 with A40U, U42A, A43U, U44A, C46U, A47C, U51G, C52U, U53C
B18: target 3 G3U,U22C (mixed)
RNA 1: B1 RNA 1
RNA 2: B2 RNA 2 with U30C, G40A, U46C, G49U
B19: target 3 U2G,G14U (mixed)
RNA 1: B1 RNA 1
RNA 2: B2 RNA 2 with G38U, G40A, U46C, U50G
B20: target 3 G4A,U21A (mixed)
RNA 1: B1 RNA 1
RNA 2: B2 RNA 2 with U31A, G40A, U46C, G48A
B21: target 3 U2G,U22A (mixed)
RNA 1: B1 RNA 1
RNA 2: B2 RNA 2 with U30A, G40A, U46C, U50G
B22: target 3 insU 3' of 5,insG 3' of 5 (mixed)
RNA 1: B1 RNA 1
RNA 2: B1 RNA 2 with G48U, A49G, U51G, C52U, U53C
B23: target 3 insU 3' of 5,insU 3' of 3 (mixed)
RNA 1: B1 RNA 1
RNA 2: B1 RNA 2 with G48U, A49G, C52U, U53C
B24: target 3 insA 3' of 4,insA 3' of 1 (mixed)
RNA 1: B1 RNA 1
RNA 2: B1 RNA 2 with U53A
B25: target 3 insA 3' of 8,insG 3' of 7 (mixed)
RNA 1: B1 RNA 1
RNA 2: B1 RNA 2 with U45A, C46U, A47G, G48C, U51G, C52U, U53C
B26: target 1 insG 3' of 22,insU 3' of 7 (mixed)
RNA 1: CACCCGUGCAAAAAUGCAGGGGUCUAAAACUGAGCGGAUAACCUCUCUAUGG
RNA 2: GGGAAUGGAUCCACAUCUACGAAUUCGUACGCAUAGAGAGGUUAUCUCGCUCACCGAGAUCGGAAGAGCACACGU
B27: target 1 insC 3' of 13,insU 3' of 5 (mixed)
RNA 1: B26 RNA 1
RNA 2: GGGAAUGGAUCCACAUCUACGAAUUCGUACCAUAGAGAGCGUUAUCCGUCUCACCGAGAUCGGAAGAGCACACGU
B28: target 1 C2G,A18U (mixed)
RNA 1: B26 RNA 1
RNA 2: GGGAAUGGAUCCACAUCUACGAAUUCGUACCAUUGAGAGGUUAUCCGCUGACCGAGAUCGGAAGAGCACACGU

Target: T1, EsCas13d, nuclease-dead
Assay: crRNA (strand 1, pre-loaded); Mg2+; 40 mM Tris-HCl pH 7.5, 150 mM NaCl, 6 mM MgCl2, 1 mM DTT, 0.1% Tween-20, 0.2 mg/ml BSA; 25 C; 10 min per concentration, then washed
Details: tags: His6-TwinStrep-SUMO cleaved; N-terminal SNAP kept (SNAP-Surface 488); label: 3' end held by stalled T7 RNA polymerase

Row | Binder | Kd [nM]
1 | B1 | 70 ± 32
2 | B2 | 33 ± 5
3 | B3 | 68 ± 14.5
4 | B4 | 94 ± 36
5 | B5 | 60.5 ± 7.5
6 | B6 | 52.5 ± 11.5
7 | B7 | 8.45 ± 0.75
8 | B8 | 42 ± 13.5
9 | B9 | 49 ± 10
10 | B10 | 63 ± 6
11 | B11 | 28 ± 4
12 | B12 | 73.5 ± 22
13 | B13 | 24.4 ± 2.85
14 | B14 | 25.1 ± 3.45
15 | B15 | 79.5 ± 24.5
16 | B16 | 28 ± 5
17 | B17 | 88 ± 24.5
18 | B18 | 28.4 ± 5.25
19 | B19 | 73.5 ± 13.5
20 | B20 | 35.1 ± 3.15
21 | B21 | 25.6 ± 2.5
22 | B22 | 4.74 ± 0.56
23 | B23 | 4.35 ± 0.375
24 | B24 | 50.5 ± 23
25 | B25 | 72.5 ± 12
26 | B26 | 26.5 ± 1.1
27 | B27 | 8.1 ± 0.8
28 | B28 | 17 ± 1.7

Source: paper PMC10786891, “Massively parallel profiling of RNA-targeting CRISPR-Cas13d”
